Laboratory results published in US20100144027.

Target: enterokinase

B1: protein of the present invention having an amino acid sequence shown in SEQ ID NO:1 (protein)
chain: YDPEAASAPGSGNPCHEASAAQKENAGEDPGLARQAPKPRKQRSSLLEKGLDGAKKAVGGLGKLGKDAVEDLESVGKGAVHDVKDVLDSVL
B1 was tested, and the “amidolytic activity against the fluorescent peptide substrate for trypsin (increase in fluorescence intensity)” value was “a minimal proteolytic activity exhibited by enterokinase alone was significantly enhanced by the protein of the present invention immunoprecipitated from JAR cells”.
